From patent US20210206856A1 (PANDION OPERATIONS, published 2021) come the findings set out here.

Some results are limits rather than exact numbers.

For test [1], the target named is T1, recombinant mouse MAdCAM-1 (mouse, UniProt Q61826 22-365, limits assumed).
T1 construct: also called mMAdCAM-1; mouse MAdCAM-Fc
T1 sequence (looked up): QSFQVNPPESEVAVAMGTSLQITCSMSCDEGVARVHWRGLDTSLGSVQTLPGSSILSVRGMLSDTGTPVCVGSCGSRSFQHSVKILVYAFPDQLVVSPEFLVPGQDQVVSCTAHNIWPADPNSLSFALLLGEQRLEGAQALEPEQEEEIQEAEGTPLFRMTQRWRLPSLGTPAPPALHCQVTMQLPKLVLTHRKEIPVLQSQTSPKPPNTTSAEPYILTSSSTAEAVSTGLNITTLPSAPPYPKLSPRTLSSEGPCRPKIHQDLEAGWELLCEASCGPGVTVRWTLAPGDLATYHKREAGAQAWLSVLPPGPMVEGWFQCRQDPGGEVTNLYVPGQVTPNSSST
The experiment in a line: Octet. (In BLI a coated tip is dipped into the sample, and binding shifts an interference pattern.)

The target in test [2] is T2, mouse MAdCAM expressed on cells (mouse, UniProt Q61826 22-405).
T2 construct: whole, on cells
T2 sequence (looked up): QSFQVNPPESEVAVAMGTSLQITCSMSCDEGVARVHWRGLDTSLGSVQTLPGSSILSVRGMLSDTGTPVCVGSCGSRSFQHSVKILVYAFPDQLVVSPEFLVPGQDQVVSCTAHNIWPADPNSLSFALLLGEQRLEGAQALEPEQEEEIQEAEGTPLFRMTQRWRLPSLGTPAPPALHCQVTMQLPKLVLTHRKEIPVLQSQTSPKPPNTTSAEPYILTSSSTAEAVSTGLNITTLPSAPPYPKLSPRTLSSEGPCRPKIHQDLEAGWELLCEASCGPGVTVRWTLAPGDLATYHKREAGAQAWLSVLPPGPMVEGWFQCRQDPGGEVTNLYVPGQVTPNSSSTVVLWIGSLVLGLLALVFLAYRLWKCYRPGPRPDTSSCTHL
The experiment in a line: cell binding.

The target in test [3] is T3, human MAdCAM expressed on cells (human, UniProt Q13477 19-382).
T3 construct: whole, on cells; also called MADCAM1
T3 sequence (looked up): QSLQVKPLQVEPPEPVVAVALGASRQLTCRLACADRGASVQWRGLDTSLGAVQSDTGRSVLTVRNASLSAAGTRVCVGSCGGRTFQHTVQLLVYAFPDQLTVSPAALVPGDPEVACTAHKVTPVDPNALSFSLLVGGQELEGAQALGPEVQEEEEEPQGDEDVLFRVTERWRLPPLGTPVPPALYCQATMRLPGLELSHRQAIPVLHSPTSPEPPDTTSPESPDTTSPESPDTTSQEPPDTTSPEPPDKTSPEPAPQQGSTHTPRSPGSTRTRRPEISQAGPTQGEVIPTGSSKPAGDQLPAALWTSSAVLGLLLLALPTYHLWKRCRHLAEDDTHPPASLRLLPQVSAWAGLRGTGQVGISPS
The test is described as follows: cell binding.

Test [4] addresses T4, mouse PD-1 on cells (mouse, UniProt Q02242 25-288).
T4 sequence (looked up): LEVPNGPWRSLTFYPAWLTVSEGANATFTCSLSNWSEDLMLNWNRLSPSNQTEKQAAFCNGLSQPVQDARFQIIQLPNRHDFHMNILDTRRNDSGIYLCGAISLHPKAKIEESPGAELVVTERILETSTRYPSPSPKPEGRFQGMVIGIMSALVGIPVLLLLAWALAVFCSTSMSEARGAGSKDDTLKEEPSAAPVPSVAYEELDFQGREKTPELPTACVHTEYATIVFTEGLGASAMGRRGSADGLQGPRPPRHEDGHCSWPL
The test is described as follows: cell-based or functional assay.

In test [5] the target is T5, CD25 (Homo sapiens (Human), UniProt P01589 22-240).
T5 construct: also called IL-2R alpha chain
T5 sequence: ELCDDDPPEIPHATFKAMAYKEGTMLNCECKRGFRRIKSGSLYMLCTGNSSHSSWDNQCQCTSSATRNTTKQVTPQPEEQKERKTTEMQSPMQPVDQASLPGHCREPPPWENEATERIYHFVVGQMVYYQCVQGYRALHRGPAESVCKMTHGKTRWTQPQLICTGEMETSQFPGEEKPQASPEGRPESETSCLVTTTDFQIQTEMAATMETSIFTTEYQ
The test is described as follows: ELISA, CD25 coated plate. Background: An ELISA detects its analyte on a solid surface through an enzyme-linked reagent.

B1: MAdCAM Antibody Table 1 Clone 20 (scFv)
scFv: EVQLLESGGGLVQPGGSLRLSCAASGFTFDDYAMHWVRQAPGKGLEWVSYIDTSSSHLYYADSVKGRFTISRDNSKNTLYLQMNSLRAEDTAVYYCARDEAAAGYYGMDVWGQGTTVTVSSGGGGSGGGGSGGGGSGGGGSDIQMTQSPSSLSASVGDRVTITCQAGQDISNYLNWYQQKPGKAPKLLIYDASNLETGVPSRFSGSGSGTDFTLTISSLQPEDFATYYCQQTYSTPITFGQGTKLEIK
B1: the binding result in test [1] is given as “no binding”; in test [2], “no binding”; in test [3] it was “binds”.

B2: PD1AB23 (antibody, IgG1, V domains shown)
VH: QVQLVQSGAEVKKPGASVKVSCKASGGTFSNYAISWVRQAPGQGLEWMGWMNPNSGNTGYAQKFQGRVTMTRDTSTSTVYMELSSLRSEDTAVYYCARVNYYYYYGMDVWGQGTTVTVSS
VL: DIQMTQSPSSLSASVGDRVTITCQASQDISNYLNWYQQKPGKAPKLLIYKASTLKSGVPSRFSGSGSGTDFTLTISSLQPEDFATYYCQQADNLPFTFGPGTKVDIK
For the molecule B2, the “Mouse agonist-CTG: IC50, IgG1” value in test [4] was less than 0.01 µM.

B3: MAdCAM Antibody Table 1 Clone 19 (scFv)
scFv: EVQLLESGGGLVQPGGSLRLSCAASGFTFDDYAMHWVRQAPGKGLEWVSGISWNSGSIGYADSVKGRFTISRDNSKNTLYLQMNSLRAEDTAVYYCAKDIVAAGHYYYGMDVWGQGTTVTVSSGGGGSGGGGSGGGGSGGGGSDIQMTQSPSSLSASVGDRVTITCQASQDISNYLNWYQQKPGKAPKLLIYDASNLETGVPSRFSGSGSGTDFTLTISSLQPEDFATYYCQQSYSTPLTFGGGTKVEIK
Turning to B3, the values for the binding result in test [1], in test [2] and in test [3] were “no binding”, “no binding” and “binds”, respectively.

B4: PD1AB22 (antibody, IgG1, V domains shown)
VH: QVQLVQSGAEVKKPGASVKVSCKASGYTFSGYYMHWVRQAPGQGLEWMGVINPSGGSTSYAQKFQGRVTMTRDTSTSTVYMELSSLRSEDTAVYYCAEGFDYWGQGTLVTVSS
VL: EIVMTQSPATLSVSPGERATLSCRASQGVGRSLAWYQQKPGQAPRLLIYGASTRATGIPARFSGSGSGTEFTLTISSLQSEDFAVYYCQQYYTTPITFGQGTRLEIK
As to B4, in test [4], the “Mouse agonist-CTG: IC50, IgG1” value is less than 0.01 µM.

B5: PD1AB4 (antibody, IgG1, V domains shown)
VH: QVQLVQSGAEVKKPGASVKVSCKASGYSFTTYYMHWVRQAPGQGLEWMGIINPSGGSTSYAQKFQGRVTMTRDTSTSTVYMELSSLRSEDTAVYYCASGWVYWGQGTLVTVSS
VL: DIQMTQSPSSLSASVGDRVTITCQASRDIKNYLAWYQQKPGKAPKLLIYAASSLQSGVPSRFSGSGSGTDFTLTISSLQPEDFATYYCQQSYSTPPTFGPGTKVDIK
In the case of B5, the “Mouse agonist-CTG: IC50, IgG1” value in test [4] is less than 0.01 µM.

B6: PD1AB20 (antibody, IgG1, V domains shown)
VH: QVQLVQSGAEVKKPGASVKVSCKASGYTFSDHYMHWVRQAPGQGLEWMGTINPSGGRTSYAQKFQGRVTMTRDTSTSTVYMELSSLRSEDTAVYYCAADNGHASGWLYYYGMDVWGQGTTVTVSS
VL: DIQMTQSPSSLSASVGDRVTITCRASQSISNWVAWYQQKPGKAPKLLIYRASTLQSGVPSRFSGSGSGTDFTLTISSLQPEDFATYYCQQSHSLPLTFGPGTKVDIK
Regarding B6, in test [4], the “Mouse agonist-CTG: IC50, IgG1” value is less than 0.01 µM.

B7: PD1AB6 (antibody, IgG1, V domains shown)
VH: EVQLLESGGGLVQPGGSLRLSCAASGFTFSNYPMHWVRQAPGKGLEWVALISDDGTNEHYADSVKGRFTISRDNSKNTLYLQMNSLRAEDTAVYYCARDSKFANYYYYYDMDVWGQGTTVTVSS
VL: DIQMTQSPSSLSASVGDRVTITCRASQSINNYLSWYQQKPGKAPKLLIYDASNLETGVPSRFSGSGSGTDFTLTISSLQPEDFATYYCQQSYSTPLTFGPGTKVDIK
For the molecule B7, the “Mouse agonist-CTG: IC50, IgG1” value in test [4] is less than 0.01 µM.

B8: human IL-2 mutein fused N-terminally to human IgG1 Fc domain (SEQ ID NO: 57) (Fc fusion)
chain: APTSSSTKKTQLQLEHLLLDLQMILNGINNYKNPKLTRMLTFKFYMPKKATELKHLQCLEEELKPLEEALNLAPSKNFHLRPRDLISDINVIVLELKGSETTFMCEYADETATIVEFLNRWITFSQSIISTLTGGGGSGGGGSGGGGSGGGGSDKTHTCPPCPAPEAAGAPSVFLFPPKPKDTLMISRTPEVTCVVVDVSHEDPEVKFNWYVDGVEVHNAKTKPREEQYNSTYRVVSVLTVLHQDWLNGKEYKCKVSNKALPAPIEKTISKAKGQPREPQVYTLPPSREEMTKNQVSLTCLVKGFYPSDIAVEWESNGQPENNYKTTPPVLDSDGSFFLYSKLTVDKSRWQQGNVFSCSVMHEALHNHYTQKSLSLSPG
notes: also called IL-2 N88D V69A, Q74P-G4Sx4-Fc
On to B8, for which the EC50 in test [5] is less than 0.001 µM.

B9: IL-2 mutein SEQ ID NO: 53 (Fc fusion)
chain: APTSSSTKKTQLQLEHLLLDLQMILNGINNYKNPKLTRMLTFKFYMPKKATEIKHLQCLEEELKPLEEALNLAPSKNFHLRPRDLISDINVIVLELKGSETTFMCEYADETATIVEFLNRWITFSQSIISTLTGGGGSGGGGSGGGGSGGGGSDKTHTCPPCPAPEAAGAPSVFLFPPKPKDTLMISRTPEVTCVVVDVSHEDPEVKFNWYVDGVEVHNAKTKPREEQYNSTYRVVSVLTVLHQDWLNGKEYKCKVSNKALPAPIEKTISKAKGQPREPQVYTLPPSREEMTKNQVSLTCLVKGFYPSDIAVEWESNGQPENNYKTTPPVLDSDGSFFLYSKLTVDKSRWQQGNVFSCSVMHEALHNHYTQKSLSLSPG
notes: also called IL-2 L53I N88D V69A, Q74P, C125S-G4Sx4-Fc
Regarding B9, in test [5], the EC50 is less than 0.001 µM.

B10: IL-2 mutein SEQ ID NO: 55 (Fc fusion)
chain: APTSSSTKKTQLQLEHLLLDLQMILNGINNYKNPKLTRMLTFKFYMPKKATELKHLQCLEEELKPLEEALNLAPSKNFHIRPRDLISDINVIVLELKGSETTFMCEYADETATIVEFLNRWITFSQSIISTLTGGGGSGGGGSGGGGSGGGGSDKTHTCPPCPAPEAAGAPSVFLFPPKPKDTLMISRTPEVTCVVVDVSHEDPEVKFNWYVDGVEVHNAKTKPREEQYNSTYRVVSVLTVLHQDWLNGKEYKCKVSNKALPAPIEKTISKAKGQPREPQVYTLPPSREEMTKNQVSLTCLVKGFYPSDIAVEWESNGQPENNYKTTPPVLDSDGSFFLYSKLTVDKSRWQQGNVFSCSVMHEALHNHYTQKSLSLSPG
notes: also called IL-2 L80I N88D V69A, C125S Q74P-G4Sx4-Fc
In the case of B10, the concentration for a half-maximal effect (EC50) in test [5] is less than 0.001 µM.

B11: IL-2 mutein SEQ ID NO: 56 (Fc fusion)
chain: APTSSSTKKTQLQLEHLLLDLQMILNGINNYKNPKLTRMLTFKFYMPKKATELKHLQCLEEELKPLEEALNLAPSKNFHLRPRDLISDINVIVLELKGSETTFMCEYADETATIVEFINRWITFSQSIISTLTGGGGSGGGGSGGGGSGGGGSDKTHTCPPCPAPEAAGAPSVFLFPPKPKDTLMISRTPEVTCVVVDVSHEDPEVKFNWYVDGVEVHNAKTKPREEQYNSTYRVVSVLTVLHQDWLNGKEYKCKVSNKALPAPIEKTISKAKGQPREPQVYTLPPSREEMTKNQVSLTCLVKGFYPSDIAVEWESNGQPENNYKTTPPVLDSDGSFFLYSKLTVDKSRWQQGNVFSCSVMHEALHNHYTQKSLSLSPG
notes: also called IL-2 L118I N88D V69A, Q74P, C125S-G4Sx4-Fc
As for B11, the EC50 in test [5] was less than 0.001 µM.

B12: IL-2 mutein SEQ ID NO: 54 (Fc fusion)
chain: APTSSSTKKTQLQLEHLLLDLQMILNGINNYKNPKLTRMLTFKFYMPKKATELKHIQCLEEELKPLEEALNLAPSKNFHLRPRDLISDINVIVLELKGSETTFMCEYADETATIVEFLNRWITFSQSIISTLTGGGGSGGGGSGGGGSGGGGSDKTHTCPPCPAPEAAGAPSVFLFPPKPKDTLMISRTPEVTCVVVDVSHEDPEVKFNWYVDGVEVHNAKTKPREEQYNSTYRVVSVLTVLHQDWLNGKEYKCKVSNKALPAPIEKTISKAKGQPREPQVYTLPPSREEMTKNQVSLTCLVKGFYPSDIAVEWESNGQPENNYKTTPPVLDSDGSFFLYSKLTVDKSRWQQGNVFSCSVMHEALHNHYTQKSLSLSPG
notes: also called IL-2 L56I N88D V69A, Q74P, C125S-G4Sx4-Fc
As to B12, in test [5], the EC50 was less than 0.001 µM.

B13: PD1AB7 (antibody, IgG1, V domains shown)
VH: QVQLVQSGAEVKKPGASVKVSCKASGYSFTGHYIHWVRQAPGQGLEWMGIINPNGGSTTYAQKLQGRVTMTRDTSTSTVYMELSSLRSEDTAVYYCARGKFDFYGDYVTAFDIWGQGTMVTVSS
VL: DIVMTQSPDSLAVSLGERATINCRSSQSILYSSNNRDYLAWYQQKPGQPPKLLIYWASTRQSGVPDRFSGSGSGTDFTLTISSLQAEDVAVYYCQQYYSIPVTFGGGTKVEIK
Turning to B13, the “Mouse agonist-CTG: IC50, IgG1” value in test [4] was less than 0.01 µM.

The term EC50 denotes the concentration at which the effect is half-maximal.
